Laboratory results published in patent publication KR20150068913A.

Target: 광견병 바이러스 CVS-11의 야생형 G 단백질 (rabies virus CVS-11) (UniProt O92284)
Test: cell-based or functional assay

Sequence of UniProt O92284 (O92284 20-524 limits assumed): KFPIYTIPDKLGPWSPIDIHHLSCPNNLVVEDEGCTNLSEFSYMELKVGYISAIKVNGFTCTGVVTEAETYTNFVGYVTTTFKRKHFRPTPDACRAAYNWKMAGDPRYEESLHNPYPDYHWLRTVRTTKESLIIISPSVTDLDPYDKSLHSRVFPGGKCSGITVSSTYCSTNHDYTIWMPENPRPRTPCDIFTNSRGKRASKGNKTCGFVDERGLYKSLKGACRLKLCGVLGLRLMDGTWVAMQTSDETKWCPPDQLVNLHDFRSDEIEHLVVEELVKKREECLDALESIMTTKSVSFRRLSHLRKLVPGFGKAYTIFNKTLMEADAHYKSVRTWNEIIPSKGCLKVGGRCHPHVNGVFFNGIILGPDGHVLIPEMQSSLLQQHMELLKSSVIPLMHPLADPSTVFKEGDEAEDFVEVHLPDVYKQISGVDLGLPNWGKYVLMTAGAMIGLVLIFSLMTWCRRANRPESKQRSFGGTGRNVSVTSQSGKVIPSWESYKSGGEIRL

B1: 이 건 항체 2 (antibody, V domains shown)
VH: EVQLVESGAEVKKPGASVKVSCKASGYTFTSYDVSWVRQAPGQGLEWMGWISAYRGNTKYAQKFQGRVTMTTDTSTSTAYMELRSLRSDDTAVYYCARAKSHPYYDFWSGYYVPGAFDIWGQGTMVTVSS
VL: ELQMTQSPSSLSASVGDRVTITCQASQDISNYLTWYQQKPGKAPKLLIYDASNLETGVPSRFSGSGSGTDFTFTISSLQPEDIATYYCQQYDNLPPTFGGGTKVEIKR
RFFIT IU/mL, CVS-11: 1.59 IU/mL
RFFIT IU/mg, CVS-11 (중화능력): 7940 IU/mg
RFFIT Titer, CVS-11: 270
